Data taken from paper PMC8828546, “OsWRKY53 Promotes Abscisic Acid Accumulation to Accelerate Leaf Senescence and Inhibit Seed Germination by Downregulating Abscisic Acid Catabolic Genes in Rice”.

Target: OsWRKY53 (Oryza sativa (rice), UniProt A7BEY7 1-487)
Assay: EMSA; unlabeled probe competitor at 10-, 50-, 100-fold also run (outcome only in gel); EMSA: room temperature, 20 min; binding buffer, salt and pH not stated; 6% native acrylamide gel, 0.5x TBE, 4 C, 110 V, 2 h
Details: protein: recombinant; tags: His; TF (pCold-TF vector); label: 5'-FAM on one strand; annealed with complementary oligo

Sequence of OsWRKY53 (A7BEY7 entry or part of it): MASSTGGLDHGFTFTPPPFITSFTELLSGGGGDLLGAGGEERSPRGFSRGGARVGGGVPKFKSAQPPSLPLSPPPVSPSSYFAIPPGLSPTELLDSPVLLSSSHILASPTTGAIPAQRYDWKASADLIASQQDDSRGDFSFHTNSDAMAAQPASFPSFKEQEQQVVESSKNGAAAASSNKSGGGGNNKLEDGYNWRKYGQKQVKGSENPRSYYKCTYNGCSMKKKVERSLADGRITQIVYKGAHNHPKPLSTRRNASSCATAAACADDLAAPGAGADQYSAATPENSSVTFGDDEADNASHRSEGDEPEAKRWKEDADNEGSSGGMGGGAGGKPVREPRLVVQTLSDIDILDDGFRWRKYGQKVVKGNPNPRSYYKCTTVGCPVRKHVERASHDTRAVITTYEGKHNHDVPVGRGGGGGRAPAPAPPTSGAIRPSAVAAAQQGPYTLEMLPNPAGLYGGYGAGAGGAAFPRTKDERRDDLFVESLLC

B1: OsABA8ox1 promoter W-box probe (dsDNA)
DNA 1: ACAGGTTGACCTTTGCAT
DNA 2: ATGCAAAGGTCAACCTGT
Q: Does B1 bind?
A: binds
